Here are results for 15 sequences from the supplement of paper PMC10724198.

Series [1] relates to Saccharomyces cerevisiae. Briefly: protein stability index of tFT-peptide fusion (C-terminal peptide) (PSI (0-1 scale)); higher = more stable (slower turnover). As for the experimental part: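 MPS profiling in S. cerevisiae of the tFT-X12 degron library: putative degron peptides plus stable controls, 12 aa, fused to the C-terminus of a sfGFP-mCherry timer. Cells are FACS-sorted into 8 mCherry/sfGFP bins and deep-sequenced. PSI runs from 0 (unstable) to 1 (stable). Backgrounds are wild type, das1Δ and doa10Δ at 30 °C, and wild type, das1Δ, cdc34-1 and cdc53-1 at 37 °C; 2-3 technical replicates each.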

For series [2], the system named is Saccharomyces cerevisiae. The series is described as above. The conditions noted are these: genetic background: wild type; temperature: 30 C.
The mark [3] stands for this setting: genetic background: cdc34-1, temperature: 37 C.
[4] abbreviates: genetic background: cdc53-1, temperature: 37 C.
The mark [5] stands for this setting: genetic background: das1 deletion, temperature: 30 C.
Where [6] appears, read: genetic background: das1 deletion, temperature: 37 C.
Setting [7] is: genetic background: doa10 deletion, temperature: 30 C.
[8] abbreviates: genetic background: wild type, temperature: 30 C.
Where [9] appears, read: genetic background: wild type, temperature: 37 C.

± gives the standard deviation of the averaged measurements.
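Also: PSI is a weighted mean of sequencing reads over stability bins, variants kept only with over 10 reads, mCherry proximal and sfGFP distal, peptide attached via GGGS linker.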

For SVHKYGFIKEIN, the protein stability index was 0.732 ± 0.026 with Saccharomyces cerevisiae [1] (setting [3]); 0.70852 ± 0.00021 with Saccharomyces cerevisiae [1] (setting [4]); 0.668 ± 0.061 with Saccharomyces cerevisiae [1] (setting [5]); 0.761 ± 0.023 with Saccharomyces cerevisiae [1] (setting [6]); 0.473 ± 0.035 with Saccharomyces cerevisiae [1] (setting [7]); 0.474 ± 0.046 with Saccharomyces cerevisiae [1] (setting [8]). Besides, the protein stability index in the series on Saccharomyces cerevisiae [1] (setting [9]) was 0.667 ± 0.016; in the series with Saccharomyces cerevisiae [2], 0.531 ± 0.047.

For the sequence SVVLCRFVLRIF, the protein stability index in the series with Saccharomyces cerevisiae [1] (setting [3]) is 0.0423 ± 0.011; with Saccharomyces cerevisiae [1] (setting [4]), 0.109 ± 0.055; with Saccharomyces cerevisiae [1] (setting [5]) it was 0.136 ± 0.015; in the series on Saccharomyces cerevisiae [1] (setting [6]), 0.181 ± 0.039; in the series on Saccharomyces cerevisiae [1] (setting [7]) it was 0.0747 ± 0.0075; with Saccharomyces cerevisiae [1] (setting [8]), 0.0735 ± 0.017. Further, the results for the protein stability index in the series with Saccharomyces cerevisiae [1] (setting [9]) and with Saccharomyces cerevisiae [2] were 0.136 ± 0.038 and 0.128 ± 0.018, respectively.

For the sequence SVVWIRFVGVRV, the protein stability index was 0.472 ± 0.026 in the series with Saccharomyces cerevisiae [1] (setting [3]); 0.507 ± 0.022 in the series on Saccharomyces cerevisiae [1] (setting [4]); 0.322 ± 0.024 with Saccharomyces cerevisiae [1] (setting [5]); 0.5291 ± 0.0048 with Saccharomyces cerevisiae [1] (setting [6]); 0.285 ± 0.0075 in the series with Saccharomyces cerevisiae [1] (setting [7]); 0.328 ± 0.016 in the series with Saccharomyces cerevisiae [1] (setting [8]). Besides, the results for the protein stability index in the series with Saccharomyces cerevisiae [1] (setting [9]) and with Saccharomyces cerevisiae [2] were 0.499 ± 0.0089 and 0.418 ± 0.0043, respectively.

With SWFNLLSILPRD, the protein stability index with Saccharomyces cerevisiae [1] (setting [3]) came out at 0.699 ± 0.022; with Saccharomyces cerevisiae [1] (setting [4]), 0.7053 ± 0.0039; with Saccharomyces cerevisiae [1] (setting [5]), 0.7 ± 0.088; in the series with Saccharomyces cerevisiae [1] (setting [6]), 0.784 ± 0.022; in the series on Saccharomyces cerevisiae [1] (setting [7]), 0.714 ± 0.029; in the series on Saccharomyces cerevisiae [1] (setting [8]), 0.683 ± 0.019. Further, the protein stability index amounted to 0.736 ± 0.045 in the series with Saccharomyces cerevisiae [1] (setting [9]) and 0.7305 ± 0.0018 in the series with Saccharomyces cerevisiae [2].

Turning to SWIKRYEITCIL, the protein stability index in the series with Saccharomyces cerevisiae [1] (setting [3]) amounted to 0.543 ± 0.033; with Saccharomyces cerevisiae [1] (setting [4]) it was 0.568 ± 0.026; in the series on Saccharomyces cerevisiae [1] (setting [5]), 0.424 ± 0.044; with Saccharomyces cerevisiae [1] (setting [6]), 0.5973 ± 0.0036; in the series with Saccharomyces cerevisiae [1] (setting [7]), 0.363 ± 0.0093; in the series with Saccharomyces cerevisiae [1] (setting [8]), 0.39 ± 0.0099. The protein stability index in the series with Saccharomyces cerevisiae [1] (setting [9]) was found to be 0.492 ± 0.027; in the series with Saccharomyces cerevisiae [2], 0.478 ± 0.015.

In the case of SWWISKWVGLNC, the protein stability index in the series with Saccharomyces cerevisiae [1] (setting [3]) amounted to 0.705 ± 0.0095; in the series on Saccharomyces cerevisiae [1] (setting [4]), 0.778 ± 0.01; in the series with Saccharomyces cerevisiae [1] (setting [5]), 0.636 ± 0.013; with Saccharomyces cerevisiae [1] (setting [6]), 0.7821 ± 0.0033; in the series on Saccharomyces cerevisiae [1] (setting [7]), 0.367 ± 0.0053; in the series on Saccharomyces cerevisiae [1] (setting [8]), 0.402 ± 0.043. Also, the protein stability index in the series with Saccharomyces cerevisiae [1] (setting [9]) was 0.6358 ± 0.0049; in the series with Saccharomyces cerevisiae [2], 0.52 ± 0.034.

Turning to SYMWLVEVLLFI, the protein stability index came out at 0.229 ± 0.0074 in the series with Saccharomyces cerevisiae [1] (setting [3]); 0.306 ± 0.0063 in the series with Saccharomyces cerevisiae [1] (setting [4]); 0.196 ± 0.028 in the series on Saccharomyces cerevisiae [1] (setting [5]); 0.386 ± 0.019 with Saccharomyces cerevisiae [1] (setting [6]); 0.173 ± 0.012 in the series on Saccharomyces cerevisiae [1] (setting [7]); 0.189 ± 0.012 with Saccharomyces cerevisiae [1] (setting [8]). Also, the results for the protein stability index with Saccharomyces cerevisiae [1] (setting [9]) and in the series on Saccharomyces cerevisiae [2] were 0.33 ± 0.0059 and 0.264 ± 0.038, respectively.

On to SYVFEFIVSVVF, for which the protein stability index with Saccharomyces cerevisiae [1] (setting [3]) amounted to 0.208 ± 0.016; in the series on Saccharomyces cerevisiae [1] (setting [4]), 0.347 ± 0.011; in the series with Saccharomyces cerevisiae [1] (setting [5]), 0.253 ± 0.03; in the series on Saccharomyces cerevisiae [1] (setting [6]) it was 0.373 ± 0.015; with Saccharomyces cerevisiae [1] (setting [7]), 0.23 ± 0.0064; with Saccharomyces cerevisiae [1] (setting [8]), 0.255 ± 0.014. Further, the protein stability index with Saccharomyces cerevisiae [1] (setting [9]) was determined as 0.341 ± 0.016; in the series with Saccharomyces cerevisiae [2] it was 0.315 ± 0.0044.

In the case of SYVVVFVIFCVG, the protein stability index in the series on Saccharomyces cerevisiae [1] (setting [3]) was determined as 0.1826 ± 0.00046; in the series with Saccharomyces cerevisiae [1] (setting [4]), 0.281 ± 0.028; with Saccharomyces cerevisiae [1] (setting [5]), 0.206 ± 0.03; in the series on Saccharomyces cerevisiae [1] (setting [6]) it was 0.3424 ± 0.0014; in the series on Saccharomyces cerevisiae [1] (setting [7]), 0.173 ± 0.0049; in the series with Saccharomyces cerevisiae [1] (setting [8]), 0.214 ± 0.015. The protein stability index turned out to be 0.301 ± 0.0081 in the series on Saccharomyces cerevisiae [1] (setting [9]) and 0.224 ± 0.099 in the series on Saccharomyces cerevisiae [2].

Regarding TDFICLLWLLHW, the protein stability index in the series with Saccharomyces cerevisiae [1] (setting [3]) is 0.552 ± 0.035; with Saccharomyces cerevisiae [1] (setting [4]), 0.535 ± 0.058; in the series with Saccharomyces cerevisiae [1] (setting [5]), 0.422 ± 0.02; in the series on Saccharomyces cerevisiae [1] (setting [6]), 0.5698 ± 0.0043; in the series on Saccharomyces cerevisiae [1] (setting [7]) it was 0.3864 ± 0.0017; in the series with Saccharomyces cerevisiae [1] (setting [8]), 0.41 ± 0.032. Besides, the results for the protein stability index with Saccharomyces cerevisiae [1] (setting [9]) and in the series with Saccharomyces cerevisiae [2] were 0.535 ± 0.014 and 0.565 ± 0.12, respectively.

On to TFRVRRQKNRNM, for which the protein stability index with Saccharomyces cerevisiae [1] (setting [3]) amounted to 0.628 ± 0.021; in the series on Saccharomyces cerevisiae [1] (setting [4]), 0.692 ± 0.039; in the series with Saccharomyces cerevisiae [1] (setting [5]), 0.631 ± 0.022; in the series with Saccharomyces cerevisiae [1] (setting [6]) it was 0.725 ± 0.013; in the series with Saccharomyces cerevisiae [1] (setting [7]), 0.0838 ± 0.015; with Saccharomyces cerevisiae [1] (setting [8]), 0.099 ± 0.013. The protein stability index came out at 0.217 ± 0.012 with Saccharomyces cerevisiae [1] (setting [9]) and 0.236 ± 0.012 with Saccharomyces cerevisiae [2].

For the sequence TLFSFLLVFVFG, the protein stability index in the series with Saccharomyces cerevisiae [1] (setting [3]) was 0.209 ± 0.0076; in the series on Saccharomyces cerevisiae [1] (setting [4]) it was 0.315 ± 0.0035; in the series on Saccharomyces cerevisiae [1] (setting [5]) it was 0.228 ± 0.035; with Saccharomyces cerevisiae [1] (setting [6]), 0.386 ± 0.0047; with Saccharomyces cerevisiae [1] (setting [7]), 0.185 ± 0.019; with Saccharomyces cerevisiae [1] (setting [8]), 0.206 ± 0.031. The values for the protein stability index in the series on Saccharomyces cerevisiae [1] (setting [9]) and in the series on Saccharomyces cerevisiae [2] were 0.35 ± 0.0049 and 0.411 ± 0.017, respectively.

Consider TLLMVSMTVRPL, for which the protein stability index with Saccharomyces cerevisiae [1] (setting [3]) was determined as 0.3005 ± 0.00077; in the series with Saccharomyces cerevisiae [1] (setting [4]), 0.379 ± 0.02; with Saccharomyces cerevisiae [1] (setting [5]) it was 0.274 ± 0.022; in the series on Saccharomyces cerevisiae [1] (setting [6]) it was 0.411 ± 0.011; in the series with Saccharomyces cerevisiae [1] (setting [7]), 0.26 ± 0.0094; in the series on Saccharomyces cerevisiae [1] (setting [8]), 0.272 ± 0.022. The protein stability index was 0.398 ± 0.036 with Saccharomyces cerevisiae [1] (setting [9]) and 0.38 ± 0.0051 in the series with Saccharomyces cerevisiae [2].

As for TPPLPTTPTLNS, the protein stability index in the series with Saccharomyces cerevisiae [1] (setting [3]) is 0.641 ± 0.022; in the series on Saccharomyces cerevisiae [1] (setting [4]) it was 0.713 ± 0.022; with Saccharomyces cerevisiae [1] (setting [5]), 0.718 ± 0.027; in the series with Saccharomyces cerevisiae [1] (setting [6]) it was 0.703 ± 0.021; in the series with Saccharomyces cerevisiae [1] (setting [7]), 0.722 ± 0.025; with Saccharomyces cerevisiae [1] (setting [8]), 0.71 ± 0.011. Also, the protein stability index in the series on Saccharomyces cerevisiae [1] (setting [9]) is 0.684 ± 0.021; in the series with Saccharomyces cerevisiae [2] it was 0.732 ± 0.025.

As to TPRQYVVSLSLC, the protein stability index in the series on Saccharomyces cerevisiae [1] (setting [3]) is 0.579 ± 0.027; in the series on Saccharomyces cerevisiae [1] (setting [4]), 0.657 ± 0.033; with Saccharomyces cerevisiae [1] (setting [5]), 0.587 ± 0.039; in the series with Saccharomyces cerevisiae [1] (setting [6]), 0.703 ± 0.015; with Saccharomyces cerevisiae [1] (setting [7]) it was 0.131 ± 0.0045; in the series with Saccharomyces cerevisiae [1] (setting [8]) it was 0.123 ± 0.0062. Further, the figures for the protein stability index with Saccharomyces cerevisiae [1] (setting [9]) and in the series on Saccharomyces cerevisiae [2] were 0.227 ± 0.0063 and 0.19 ± 0.067, respectively.
